# Measurements: article PMC7603204
# Where a chain is given by its changes, count along the chain named. Names may count otherwise.
# B1: E. coli AlaRS (Escherichia coli K-12; C666A/R561C) (protein)
# chain: SKSTAEIRQAFLDFFHSKGHQVVASSSLVPHNDPTLLFTNAGMNQFKDVFLGLDKRNYSRATTSQRCVRAGGKHNDLENVGYTARHHTFFEMLGNFSFGDYFKHDAIQFAWELLTSEKWFALPKERLWVTVYESDDEAYEIWEKEVGIPRERIIRIGDNKGAPYASDNFWQMGDTGPCGPCTEIFYDHGDHIWGGPPGSPEEDGDRYIEIWNIVFMQFNRQADGTMEPLPKPSVDTGMGLERIAAVLQHVNSNYDIDLFRTLIQAVAKVTGATDLSNKSLRVIADHIRSCAFLIADGVMPSNENRGYVLRRIIRRAVRHGNMLGAKETFFYKLVGPLIDVMGSAGEDLKRQQAQVEQVLKTEEEQFARTLERGLALLDEELAKLSGDTLDGETAFRLYDTYGFPVDLTADVCRERNIKVDEAGFEAAMEEQRRRAREASGFGADYNAMIRVDSASEFKGYDHLELNGKVTALFVDGKAVDAINAGQEAVVVLDQTPFYAESGGQVGDKGELKGANFSFAVEDTQKYGQAIGHIGKLAAGSLKVGDAVQADVDEARRARICLNHSATHLMHAALRQVLGTHVSQKGSLVNDKVLRFDFSHNEAMKPEEIRAVEDLVNTQIRRNLPIETNIMDLEAAKAKGAMALFGEKYDERVRVLSMGDFSTELAGGTHASRTGDIGLFRIISESGTAAGVRRIEAVTGEGAIATVHADSDRLSEVAHLLKGDSNNLADKVRSVLERTRQLEKELQQLKEQAAAQESANLSSKAIDVNGVKLLVSELSGVEPKMLRTMVDDLKNQLGSTIIVLATVVEGKVSLIAGVSKDVTDRVKAGELIGMVAQQVGGKGGGRPDMAQAGGTDAAALPAALASVKGWVSAKLQ
# B2: E. coli AlaRS (Escherichia coli K-12; R561C) (protein)
# chain: B1 chain with A665C
# B3: E. coli AlaRS (Escherichia coli K-12; R561S) (protein)
# chain: B1 chain with C560S, A665C
# B4: E. coli AlaRS (Escherichia coli K-12; D551Y) (protein)
# chain: B1 chain with D550Y, C560R, A665C
# B5: E. coli AlaRS (Escherichia coli K-12; C666A/R561S) (protein)
# chain: B1 chain with C560S
# B6: E. coli AlaRS (Escherichia coli K-12; C666A) (protein)
# chain: B1 chain with C560R
# B7: E. coli AlaRS (Escherichia coli K-12; C666A/D551Y) (protein)
# chain: B1 chain with D550Y, C560R
# B8: E. coli AlaRS (Escherichia coli K-12) (protein)
# chain: B1 chain with C560R, A665C
# Substrate: C[C@H](N)C(=O)O
# Assay: purified protein
# Details: 2 mM ATP, 2 mM PPi, 10 mM MgCl2, 30 mM KCl, 2 mM NaF, pH 7.2, 37 °C, amino acid activation
Protein,Km [µM],kcat [s⁻¹],kcat/Km [M⁻¹ s⁻¹]
B1,190 ± 30,13.7,71500
B2,203 ± 68,21.8,107000
B3,180 ± 15,20.3,112000
B4,260 ± 76,11.9,46000
B5,177 ± 37,13.2,74300
B6,263 ± 115,16.8,63800
B7,217 ± 100,18.3,84300
B8,320 ± 150,20.8,65200
